Results published in patent US20170174791A1 (RAMOT AT TEL AVIV UNIVERSITY, published 2017).

Target: bovine serum albumin (BSA) (bovine, UniProt P02769 25-607)
Experiment: ELISA, BSA-coated plate, goat-anti-human HRP detection

bovine serum albumin (BSA), sequence (P02769 25-607 limits assumed): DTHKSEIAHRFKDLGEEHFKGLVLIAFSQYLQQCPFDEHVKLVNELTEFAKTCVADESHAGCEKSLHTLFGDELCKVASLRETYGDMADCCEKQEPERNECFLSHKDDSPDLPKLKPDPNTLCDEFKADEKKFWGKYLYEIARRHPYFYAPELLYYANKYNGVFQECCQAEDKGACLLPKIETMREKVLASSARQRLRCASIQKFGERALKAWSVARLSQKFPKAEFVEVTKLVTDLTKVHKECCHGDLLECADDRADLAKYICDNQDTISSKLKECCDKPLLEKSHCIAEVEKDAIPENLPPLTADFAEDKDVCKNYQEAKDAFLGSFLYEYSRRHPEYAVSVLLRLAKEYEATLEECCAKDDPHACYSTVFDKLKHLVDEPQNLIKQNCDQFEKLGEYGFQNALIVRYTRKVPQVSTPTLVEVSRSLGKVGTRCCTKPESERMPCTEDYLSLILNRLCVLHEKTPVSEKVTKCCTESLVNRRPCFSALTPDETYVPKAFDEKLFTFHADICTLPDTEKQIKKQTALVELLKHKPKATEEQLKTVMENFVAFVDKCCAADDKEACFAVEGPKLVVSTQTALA

B1: T427-αPE (B11 clone) IgG (bispecific, CD30 and PE38) (bispecific antibody)
light 1: not shown
heavy 1: not shown
light 2: MDIVLTQPPSASGTPGQRVTISCSGTSSDVGNSNLVSWYQQLPGTAPKLLIYGNSNRPSGVPDRFSGSKSGTSASLAISGLRSEDEADYYCCSYAGTGSPDVFGTGTKLTVLGQPKAAPSVTLFPPSSEELQANKATLVCLISDFYPGAVTVAWKADSSPVKAGVETTTPSKQSNNKYAASSYLSLTPEQWKSHRSYSCQVTHEGSTVEKTVAPAECS
heavy 2: MEVQLLETGGGLVQPGGSLRLSCAASGFTFDNYAINWVRQAPGKGLEWVSGISWNSGSIGYADSVKGRFTISRDNSKNTLYLQMNSLRAEDTAVYYCARGAPHYGGRGEFDFWGQGTLVTVSSASTKGPSVFPLAPSSKSTSGGTAALGCLVKDYFPEPVTVSWNSGALTSGVHTFPAVLQSSGLYSLSSVVTVPSSSLGTQTYICNVNHKPSNTKVDKRVEPKSCDKTHTCPPCPAPELLGRPSVFLFPPKPKDTLMISRTPEVTCVVVDVSHEDPEVKFNWYVDGVEVHNAKTKPREEQYNSTYRVVSVLTVLHQDWLNGKEYKCKVSNKALPAPIEKTISKAKGQPREPQVCTLPPSREEMTKNQVSLSCAVKGFYPSDIAVEWESNGQPENNYKTTPPVLDSDGSFFLVSKLTVDKSRWQQGNVFSCSVMHEALHNHYTQKSLSLSPGK
notes: also called T427-αPE (bispecific)
- binding result: no binding
